Reference: patent US20260263607A1, “INHIBITION OF MYC USING HIGH-DENSITY BRUSH POLYMERS” (Northwestern University, priority 2022, published 2026)
Ends that are not written are not given here. norbornene = norbornene on aminohexanoic acid N-terminal cap, polymerised by ROMP; Ahx = NCCCCCC(=O)O

Legend:
MYC T58A = target: T1, MYC T58A (Homo sapiens, UniProt P01106, T73A); test: Western blot of MYC T58A in PC-3 MYC^T58A cells; assay type: cell-based; details: 6 h; 2.5 and 5 μM HYDRAC, FIG. 31C
T1 construct: expressed in transfected cells
Description: Western BlotAnalysis: Cells were lysed in RIPA (Sigma) lysis buffer containing 1×Halt™ Protease and Phosphatase Inhibitor Cocktail (ThermoFisher). Protein concentration was measured by Bio-Rad Bradford reagent. Protein samples were prepared by addition of 4×Laemmli Sample buffer (Bio-Rad) and 2-mercaptoethanol (Bio-Rad) and resolved on 4-12% SDS-PAGE (Sodium dodecyl sulfate-polyacrylamide) gels, which were subsequently transferred to PVDF membranes (Bio-Rad) using Trans-Blot Turbo transfer buffer (Bio-Rad) and a Trans-Blot Turbo Transfer System (Bio-Rad). Membranes were blocked for 1 h at room temperature with 5% blotting-grade blocker non-fat dry milk (Bio-Rad), followed by overnight 4° C. incubation with the appropriate primary antibody and 1 h room temperature incubation with an anti-rabbit or anti-mouse IgG (H+L)-HRP conjugate (Bio-Rad) secondary antibody. Blots were imaged using Supersignal West Femto Maximum Sensitivity Substrate detection system (Thermo) and the ChemiDoc Imaging System (Bio-Rad). The following primary antibodies were used: c-Myc (Y69) (Abcam #ab32072), Streptavidin-HRP (PerkinElmer NEL750), GAPDH (Cell Signaling #3683) and Actin (Cell Signaling #5125). Quantification analyses were performed by Biorad ChemiDoc Imager and Bio-Rad Image Lab software. […]

[1] = target: T2, Myc protein from PC-3 cell lysates (Homo sapiens, UniProt P01106); test: In vitro pull down assay with biotin-terminated PLPs; assay type: binding; details: PC-3 cell lysate, 10 μM or 2 μM biotinylated PLPs, FIG. 5B
T2 construct: Degradation of endogenous Myc protein in PC-3 cells was explored; endogenous in cells; host or cells: PC-3
Description: In vitro Pull Down Assay: To confirm PLP direct binding to endogenous Myc protein in cell lysate complex, biotin conjugated PLP was synthesized. Collected PC-3 cell pellet (2 million cells per pulldown condition) was suspended in 300 μL pulldown lysis buffer (pH 7.4 50 mM Tris-HCl, 150 mM NaCl, 1 mM EDTA, 0.1% IGEPAL nonionic detergent+1× Halt protease/phosphatase inhibitor cocktail) and lysed by repeat (3×) freeze-thawing in liquid nitrogen. The lysed cell pellets were spun at 4° C. for 15 minutes at 15,000 rpm on a Eppendorf 5424R centrifuge. The collected supernatants were pre-cleared with Pierce streptavidin magnetic beads (Thermo, 88817) for 1 hr at 4° C. For Examples 7 and 10, around 300 μg was applied to each sample and incubated with 5 μM of HYDRAC, scrambled HYDRAC, 10 μM of H1 homopolymer, scrambled H1 homopolymer or D-Biotin on a rotator over night at 4° C. […]
It has been previously reported (Blum et al., Kammeyer et al., and Berger et al., Mussel Adhesive-Inspired Proteomimetic Polymer, Journal of Am. Chem. Soc., 144, 4383-4392 (2022)) that peptide brush polymers with a DP around 15 synthesized in a similar manner maintain payload bioactivity and readily enter cells. […]
(§1) This example provides data supporting toxicity of cancer cells in vitro after treatment with Myc-targeted PLPs. […] Cells were treated with PLP 5.2 for 3 days and cellular viability was recorded. […]

[2] = test system: PC-12 Pheochromocytoma (which lack the Myc dimerization partner Max) cell lines; test: PC-12 cell viability; assay type: cell-based; details: treated for 3 days, FIG. 5A
Description: (§2) Cell Culture: PC-3, PC-12, A549 cells were obtained from ATCC; Mouse MycCaP cells were the kind gift of Charles Sawyers (Memorial Sloan-Kettering Cancer Centre). All cells were authenticated and tested as mycoplasma-free. PC-3 and A549 cells were grown in F12K (Gibco) medium; MycCaP cells in DMEM medium (Gibco), all supplemented with 10% heat-inactivated fetal bovine serum (FBS, Gibco). PC-12 cells were grown in F-12K medium (ATCC) with 5% heat-inactivated FBS and 10% heat-inactivated horse serum (Thermo). All cells were cultured in 1% Penicillin-Streptomycin (10,000U/ml, Life Technologies) and 5% CO2 in a humidified incubator at 37° C.
(§3) Cell Proliferation Assays: Cell viability was estimated using the CellTiter-Glo® Luminescent Cell Viability Assay (Promega). […] After 3 to 5 days following the treatment, CellTiter-Glo reagent was added mixed 1:1 vol/vol with fresh media, plates incubated for 10 minutes on a shaking rotator followed by 10 minutes without shaking at room temperature (protected from light using aluminum foil) and luminescence was measured using plate reader (Perkin Elmer Victor 3V).
as §1

[3] = test system: PC-3 prostate cancer cells; test: PC-3 cell viability / toxicity (CellTiter-Glo); assay type: cell-based; details: PC-3, 72 hours treatment, FIG. 2D; read-out: IC50 (concentration of peptide which exhibited 50% cell viability for PC-3)
Description: as §2, §3
This example evaluates the toxicity of Myc-targeting PLPs in the PC-3 cancer cell line. • Example 3.1—Generation of Block and Statistical Copolymers. […] Cellular viability was assessed via the Cell Prolferation Assays protocol provided above. • Example 3.2—Results. […]

full length Max = full length Max (Homo sapiens, UniProt P61244); test: Circular dichroism, binding to Max; details: 1 μM PLP plus 5 μM Max
Description: (§4) Circular Dichroism (CD) Spectroscopy: CD spectra were obtained on a JASCO J-815 spectrometer equipped with a Peltier sample holder for temperature control. Polymer samples were dissolved in buffered solvent to concentrations of approximately 1 μM, and placed into a 1 cm quartz cuvette (Hellma). Protein samples were measured at 5 μM. All samples were equilibrated at room temperature for at least thirty minutes prior to measurement, with mixtures (i.e. protein and polymer combinations) being generally equilibrated for 12 hours prior to measurement. Spectra were obtained using a scan speed of 10 nm/min, using a 1 nm bandwidth, 4 sec response time, and with three accumulations. Background spectra of solvent were obtained prior to measurement of the sample solutions, and subtracted from the sample spectra using JASCO Spectra Analysis. For melting experiments, the temperature was varied between 2° and 91° C. with steps of 1° C./min, while measuring the ellipticity at 222 nm with a 2 nm bandwidth.
(§5) It has been previously reported (Blum et al., Kammeyer et al., and Berger et al., Mussel Adhesive-Inspired Proteomimetic Polymer, Journal of Am. Chem. Soc., 144, 4383-4392 (2022)) that peptide brush polymers with a DP around 15 synthesized in a similar manner maintain payload bioactivity and readily enter cells. As such, initial HYDRAC designs revolved around this molecular size range. […]

b-HLH-LZ domain of Myc = target: T3, b-HLH-LZ domain of Myc (Homo sapiens, UniProt P01106); test: Circular dichroism, dimerization with Myc b-HLH-LZ; assay type: binding; details: 1 μM PLP plus 5 μM bHlH
T3 construct: dimerize with either the b-HLH-LZ domain of Myc or full length Max
Description: as §4, §5

[4] = target: endogenous Myc protein of PC-3 cells (in PC-3 cell lysate or in the cells) (UniProt P01106 1-454, limits assumed); test: cell-based or functional assay
Sequence of endogenous Myc protein of PC-3 cells (in PC-3 cell lysate or in the cells) (P01106 whole entry): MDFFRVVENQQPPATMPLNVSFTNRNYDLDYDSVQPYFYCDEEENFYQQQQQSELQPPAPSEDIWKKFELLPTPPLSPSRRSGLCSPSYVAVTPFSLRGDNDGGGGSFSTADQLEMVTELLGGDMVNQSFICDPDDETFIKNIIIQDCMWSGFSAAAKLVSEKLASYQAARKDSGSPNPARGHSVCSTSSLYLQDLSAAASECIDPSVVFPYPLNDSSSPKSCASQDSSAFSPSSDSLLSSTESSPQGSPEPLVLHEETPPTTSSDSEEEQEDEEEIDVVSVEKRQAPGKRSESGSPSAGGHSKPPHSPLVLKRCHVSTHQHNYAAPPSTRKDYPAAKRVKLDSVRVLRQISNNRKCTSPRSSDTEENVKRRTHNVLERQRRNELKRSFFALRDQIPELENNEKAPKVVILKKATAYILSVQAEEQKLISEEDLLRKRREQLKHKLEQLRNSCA

T1 sequence (P01106 16-454 T73A): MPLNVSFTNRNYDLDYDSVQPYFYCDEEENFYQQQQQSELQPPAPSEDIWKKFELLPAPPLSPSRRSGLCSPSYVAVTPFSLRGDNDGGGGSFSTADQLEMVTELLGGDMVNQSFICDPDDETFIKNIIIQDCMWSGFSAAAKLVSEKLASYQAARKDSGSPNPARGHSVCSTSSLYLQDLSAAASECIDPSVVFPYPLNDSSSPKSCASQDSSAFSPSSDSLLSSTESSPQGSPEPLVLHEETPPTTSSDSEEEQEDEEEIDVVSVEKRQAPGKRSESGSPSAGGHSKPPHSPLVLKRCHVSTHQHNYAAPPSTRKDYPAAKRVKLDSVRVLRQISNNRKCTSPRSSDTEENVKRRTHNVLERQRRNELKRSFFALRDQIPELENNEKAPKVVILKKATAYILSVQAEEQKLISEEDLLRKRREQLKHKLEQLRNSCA
Sequence of full length Max (P61244 whole entry): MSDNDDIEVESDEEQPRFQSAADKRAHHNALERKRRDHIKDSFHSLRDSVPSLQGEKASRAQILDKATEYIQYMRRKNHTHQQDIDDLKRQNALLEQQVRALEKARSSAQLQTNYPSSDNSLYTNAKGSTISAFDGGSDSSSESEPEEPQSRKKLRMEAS
T3 sequence (P01106 368-454 limits assumed): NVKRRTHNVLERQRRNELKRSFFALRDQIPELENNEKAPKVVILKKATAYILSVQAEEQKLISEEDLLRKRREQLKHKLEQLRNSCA
T2 sequence (P01106 whole entry): as the sequence (P01106 whole entry) above

Cn1nc(C(F)(F)F)cc1-c1ccc(OCc2ccc(Cl)cc2)c(-c2ccc(Cl)c(C(F)(F)F)c2)c1O [MYCi975]
MYC^T58A protein level (MYC T58A): only minor changes in mutant MYC levels

H17-stat-RRRG6 (peptide 1 NELKRAFAALRDQI) [PLP 5.2]
Myc pull down [1]: capable of direct endogenous binding to Myc protein
IC50 [2]: 10.2 µM

NELKRAFAALRDQI-NH2 [unpolymerized H1 peptide, NELKRAFAALRDQI, reference compound]
IC50 [3]: 700 µM

H16-stat-RRRG7 (peptide 1 NELKRAFAALRDQI) [H1-R PLP]
Max binding (CD) (full length Max): limited Max/HYDRAC binding
heterodimerization with Myc b-HLH-LZ (CD) (b-HLH-LZ domain of Myc): selective Myc/HYDRAC heterodimerization in the low micromolar range

B1: PLP 5.2, H17-stat-RRRG6 (Example 9.4, FIG. 5A) (other)
peptide 1: {norbornene-Ahx}-NELKRAFAALRDQI-NH2
peptide 2: {norbornene-Ahx}-RRRG-NH2
modifications: also: polymerised through N-terminal norbornene by ROMP into polymer backbone, statistical copolymer of both peptides
IC50 of PC-3 cell viability after 3 days of treatment (CTGlo) [4]: 0.49 µM
